Results: paper PMC9220312

Molecular target: mouse thrombomodulin (endogenous, lung) (mouse (endogenous in mouse lung)) (UniProt P15306)
Sequence of UniProt P15306 (P15306 17-577): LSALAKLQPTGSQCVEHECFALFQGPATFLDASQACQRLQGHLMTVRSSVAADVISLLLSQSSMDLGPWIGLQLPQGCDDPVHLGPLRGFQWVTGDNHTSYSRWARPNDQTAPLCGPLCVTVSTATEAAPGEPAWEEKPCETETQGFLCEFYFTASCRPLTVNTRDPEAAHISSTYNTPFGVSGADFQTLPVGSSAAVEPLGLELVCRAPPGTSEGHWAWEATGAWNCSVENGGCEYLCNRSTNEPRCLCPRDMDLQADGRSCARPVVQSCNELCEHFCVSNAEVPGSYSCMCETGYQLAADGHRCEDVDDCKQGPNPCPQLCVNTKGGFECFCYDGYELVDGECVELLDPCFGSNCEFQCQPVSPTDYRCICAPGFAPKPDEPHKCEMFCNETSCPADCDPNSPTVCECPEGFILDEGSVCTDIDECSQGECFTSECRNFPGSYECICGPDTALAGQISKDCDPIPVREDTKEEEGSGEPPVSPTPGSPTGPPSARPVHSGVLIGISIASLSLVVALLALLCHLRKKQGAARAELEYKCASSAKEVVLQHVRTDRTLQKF

recombinant human His-tagged fragment of Angiopoietin-2 (ab220589, Abcam) (from UniProt O15123 19-496) (domain or fragment)
tail bleeding time in mice 2 h after i.p. injection of 8 nmol human ANGPT2: 50%
